Molecular target: T1, VEGF (biotinylated target on streptavidin BLI probe) (UniProt P15692-4 27-191, limits assumed, biotin (site not stated))
T1 construct: also called vascular endothelial growth factor
Test: binding kinetics, Kd (nM); Example 6 describes BLI on biotinylated target

T1 sequence (P15692 other isoform, or with tags, fused parts or gaps limits assumed): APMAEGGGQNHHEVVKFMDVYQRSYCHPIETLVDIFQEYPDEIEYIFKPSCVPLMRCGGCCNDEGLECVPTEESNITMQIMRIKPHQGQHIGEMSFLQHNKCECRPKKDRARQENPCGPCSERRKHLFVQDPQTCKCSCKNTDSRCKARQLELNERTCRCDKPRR

- Kd: 29.3 nM
B1: G5-1 (VHH)
VHH: EVQLQASGGGFVQPGGSLRLSCAASGSTYANYVMGWFRQAPGKEREFVSAISAFNDEVLYYADSVKGRFTISRDNSKNTVYLQMNSLRAEDTATYYCARAGQEEASKNAPGQEPVRYWGQGTQVTVSS
notes: unconjugated comparator of conjugates 24 and 25; also called G5-1 aVEGF VHH, unconjugated; G5-1 alone

Reference: patent publication US20220251185A1 (VALITOR, published 2022)
